Substitutions are numbered along the chain they refer to.
T1: 细胞内源的HPV16 E7蛋白 (CaSki, Siha cells, HPV16-positive cervical cells) (HPV16, UniProt P03129 1-98)
T1 construct: whole, on cells; Intracellular protein detected by immunocytochemistry in fixed, permeabilised cells; also called HPV16 E7内源蛋白
T1 sequence: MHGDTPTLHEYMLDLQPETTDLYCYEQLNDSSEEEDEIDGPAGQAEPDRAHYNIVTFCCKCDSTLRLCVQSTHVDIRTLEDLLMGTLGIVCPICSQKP

T2: 细胞内源的HPV18 E7蛋白 (HeLa, Siha cells) (HPV18, UniProt P06788 1-105)
T2 construct: whole, on cells; Intracellular protein detected by immunocytochemistry in fixed, permeabilised cells
T2 sequence: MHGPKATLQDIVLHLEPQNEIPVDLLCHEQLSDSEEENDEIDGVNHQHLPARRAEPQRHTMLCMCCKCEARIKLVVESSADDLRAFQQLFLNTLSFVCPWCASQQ

T3: His-Vac (HPV16)
T3 peptide: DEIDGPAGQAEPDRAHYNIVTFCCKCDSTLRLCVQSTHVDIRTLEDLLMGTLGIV

T4: His-HPV18 E7重组蛋白 (HPV18, UniProt P06788 1-105)
T4 construct: also called His-HPV18 E7融合蛋白; not shown: His tag
T4 chain: T2 sequence with K73E

B1: HPV16 E7兔单克隆抗体RAB-034 (antibody, from another filing, V domains shown)
VH: QSLEESGGRLVTPGTPLTLTCTVSGIDLSSYAMGWVRQAPGEGLDWIGSIGSSGRTYYANWAKGRFTISKTSSTTVDLKMTSLTTEDTATYFCARGVVNRSDIWGPGTLVTVSS
VL: DPMLTQTASSVSAAVGGTVTISCQSSQSVYDNNWLGWYQQKPGQPPKLLIYGASNLESGVPSRFKGSGSGTQFTLTISDVQCDDAATYYCAGGYSGNRYVFGGGTEVVVK
B2: HPV16 E7单链抗体scFv001 (scFv, V domains shown)
VH: QSLEESGGRLVTPGTPLTLTCTASGSDISSYAISWVRQAPGKGLEWIGSISNSGNTYYASWAKGRFTIAKTSTTVTLKMTSLTTADTATYFCTRGAISGTPIWGPGTLVTVSS
VL: DPMLTQTASSVSAAVGGTVTISCQSSQSVYDNNWLGWYQQKPGQPPKLLIYSVSTLASGVPSRFKGSGSGTQFTLTISDLECDDAATYYCAGGFSGNIYTFGGGTNVEIK
B3: HPV16 E7兔单克隆抗体RAB-001 (antibody, V domains shown)
VH: B2 VH
VL: B2 VL
notes: also called RAB-01; anti-HPV16 E7单抗RAB-001

How the values were obtained:
His-HPV16 E7重组蛋白 (HPV16) [1] = biological target: His-HPV16 E7重组蛋白 (HPV16) (UniProt P03129); assay: indirect ELISA, antibody 0.1μg/ml on 0.1μg/ml coat; threshold for a positive clone
His-HPV16 E7重组蛋白 (HPV16) [2] = biological target: His-HPV16 E7重组蛋白 (HPV16) (UniProt P03129); assay: ELISA, scFv 5μg/ml on 0.1μg/ml coated antigen, anti-Flag-HRP; selection threshold
[3] = biological target: T1, 细胞内源的HPV16 E7蛋白 (CaSki, Siha cells, …); assay: immunocytochemistry, CaSki cells
[4] = biological target: T2, 细胞内源的HPV18 E7蛋白 (HeLa, Siha cells); assay: immunocytochemistry, HeLa and Siha cells
His-Vac = biological target: T3, His-Vac; assay: indirect ELISA on peptides
His-HPV18 E7重组蛋白 = biological target: T4, His-HPV18 E7重组蛋白; assay: indirect ELISA, 0.5μg/ml coat, antibody 1μg/ml

| Binder | OD值 (His-HPV16 E7重组蛋白 (HPV16) [1]) [OD] | OD值 (His-HPV16 E7重组蛋白 (HPV16) [2]) [OD] | binding result [3] | binding result [4] | binding result (His-Vac) | binding result (His-HPV18 E7重组蛋白) |
| --- | --- | --- | --- | --- | --- | --- |
| B1 | > 1 | – | – | – | – | – |
| B2 | – | > 2 | – | – | – | – |
| B3 | > 1 | – | binds | binds | no binding (tested: antibody 1μg/ml, peptide coat 2μg/ml) | binds |

Source: patent CN106366186A (ATTOGEN BIOMEDICAL (SUZHOU) INC, dated 2017)
